Like-named read-outs stand apart in the source and are kept apart here.
Assays:
[1] = target: ^bioχψδγ3δ’ clamp loader complex containing N-terminally biotinylated χ (E. coli) (UniProt P28905); assay: SPR
[2] = target: ^bioχψδγ3δ’ clamp loader complex containing N-terminally biotinylated χ (E. coli) (UniProt P28905); assay: SPR; remark: listed apart in the source
[3] = target: the molecule itself; assay: cryo-EM structure

E. coli β2 sliding clamp (from UniProt P0A988) (natural protein)
Kd [1]: 13.3 nM
Kd [2]: 400 nM

B1: γ subunit of the E. coli clamp loader complex (natural protein)
chain: MSYQVLARKWRPQTFADVVGQEHVLTALANGLSLGRIHHAYLFSGTRGVGKTSIARLLAKGLNCETGITATPCGVCDNCREIEQGRFVDLIEIDAASRTKVEDTRDLLDNVQYAPARGRFKVYLIDEVHMLSRHSFNALLKTLEEPPEHVKFLLATTDPQKLPVTILSRCLQFHLKALDVEQIRHQLEHILNEEHIAHEPRALQLLARAAEGSLRDALSLTDQAIASGDGQVSTQAVSAMLGTLDDDQALSLVEAMVEANGERVMALINEAAARGIEWEALLVEMLGLLHRIAMVQLSPAALGNDMAAIELRMRELARTIPPTDIQLYYQTLLIGRKELPYAPDRRMGVEMTLLRALAFHPRMPLPEPEVPRQSFAPVAPTAVMTPTQVPPQPQSAPQQAPTVPLPETTSQVLAARQQLQRVQGATKAKKE
binding result [3]: binds

From publication PMC11436948 (Nature Communications, 2024)
